Data reported in US20110044980A1.
Where “and” joins values, the source holds several entries; their conditions need not be identical. Identical values can stand only once.

Key:
[1] = molecular target: FcgRI (human) (UniProt P12314); assay: flow cytometry (FACSCalibur), THP-1 cells, pH 7.4, 100 ug/ml
[2] = molecular target: FcgRIIb (human) (UniProt P31994); assay: flow cytometry (FACSCalibur), CHO-FcgRII-b-1 cells, pH 7.4, 100 ug/ml
[3] = molecular target: FcgRIIa (human) (UniProt P12318); assay: flow cytometry (FACSCalibur), K562 cells, pH 7.4, detection reagent alone
[4] = molecular target: FcgRIIb (human) (UniProt P31994); assay: flow cytometry (FACSCalibur), CHO-FcgRII-b-1 cells, pH 7.4, detection reagent alone
[5] = molecular target: FcRn (UniProt P55899); assay: flow cytometry (FACSCalibur), FcRnGPI-CHO cells, pH 6.4, detection reagent alone

FcgRIIa (human), sequence (P12318 34-317): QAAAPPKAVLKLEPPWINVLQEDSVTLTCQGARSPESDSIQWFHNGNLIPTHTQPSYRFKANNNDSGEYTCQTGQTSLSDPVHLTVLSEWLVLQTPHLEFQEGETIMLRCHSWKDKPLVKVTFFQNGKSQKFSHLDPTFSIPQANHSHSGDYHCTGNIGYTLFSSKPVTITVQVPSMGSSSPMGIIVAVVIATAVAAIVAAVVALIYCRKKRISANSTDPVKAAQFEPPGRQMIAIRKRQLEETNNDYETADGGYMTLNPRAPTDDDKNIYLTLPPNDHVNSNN

| Fc Receptor Binding Geometric Mean [1] | Fc Receptor Binding Geometric Mean [2] | Fc Receptor Binding Geometric Mean [3] | Fc Receptor Binding Geometric Mean [4] | Fc Receptor Binding Geometric Mean [5] | Substance |
| --- | --- | --- | --- | --- | --- |
| 101 and 67 | 3 |  |  |  | EGFR (Erbitux ®, Imclone) (antibody) |
|  |  | 3 | 3 | 6 and 5 | R-PE conjugated anti-human IgG F(Ab')2 (Jackson ImmunoResearch, Cat.#109-116-170) |
